The source of these data is PMC7445300.

This assay deals with GST-DNMT1-N (UniProt P26358). Kind of assay: pull-down; GST-tagged proteins on Glutathione Sepharose beads incubated with acid-extracted core histones from HEK293T cells transfected with FLAG-H3 or FLAG-H2B and UHRF1 (S phase); 25 mM Tris-HCl pH 8.0, 150 mM NaCl, 1% NP-40, 2 mM EDTA, 1 mM DTT, 4 °C, 3 h; WB with anti-FLAG.

“ubiquitinated FLAG-H3 (from UniProt P0CG48 1-76)”: the fold enrichment of the ubiquitinated histone in the pull-down came to 20 fold.
Turning to “ubiquitinated FLAG-H2B (from UniProt P0CG48 1-76)”, the fold enrichment of the ubiquitinated histone in the pull-down turned out to be 4.9 fold.
